The subject of this series is Escherichia coli TOP10. The experiment in a line: shrunken log2 fold change of peptide-encoding DNA abundance (4.5 h post-induction vs induction); higher = less antimicrobial activity (less host growth inhibition). Conditions: time post-induction: 4.5 h; library: site-saturation at positions 5, 18, 19, 20.
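Note: peptides expressed intracellularly from a pBAD plasmid library in pooled LB shake-flask culture, induced with 0.3% L-arabinose, DNA abundance read by NGS, three biological replicates, DESeq2 with apeglm shrinkage.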

In the case of RRIRHRPPRLPRPRPRPLKGPRP, the “shrunken log2 fold change” value was determined as 0.0721. Take RRIRQRPPRLPRPRPRPHGVPRP: the “shrunken log2 fold change” value was -0.226.

As for RRIRPRPPRLPRPRPRPRQDPRP, the “shrunken log2 fold change” value is 0.351.

Take RRIRHRPPRLPRPRPRPLLFPRP: the “shrunken log2 fold change” value was -0.364.

As to RRIRQRPPRLPRPRPRPPGHPRP, the “shrunken log2 fold change” value is 0.249. In the case of RRIRQRPPRLPRPRPRPIWCPRP, the “shrunken log2 fold change” value is -0.0171. Under RRIRTRPPRLPRPRPRPMRHPRP stands 0.00372. As for RRIRTRPPRLPRPRPRPLRVPRP, the “shrunken log2 fold change” value is 0.767. Under RRIRTRPPRLPRPRPRPRKKPRP stands 0.173; under RRIRPRPPRLPRPRPRPCSYPRP, -0.858; under RRIRHRPPRLPRPRPRPMSSPRP, -0.225.

As for RRIRIRPPRLPRPRPRPMRTPRP, the “shrunken log2 fold change” value was 0.0509. With RRIRFRPPRLPRPRPRPVKLPRP, the “shrunken log2 fold change” value came out at 0.294.

Regarding RRIRGRPPRLPRPRPRPGYLPRP, the “shrunken log2 fold change” value was 0.0499. The result for RRIRFRPPRLPRPRPRPHQFPRP reads -0.343; that for RRIRSRPPRLPRPRPRPDCCPRP, 0.227; that for RRIRLRPPRLPRPRPRPMRTPRP, 0.3. Take RRIRGRPPRLPRPRPRPINLPRP: the “shrunken log2 fold change” value was -0.0974. As for RRIRDRPPRLPRPRPRPKTIPRP, the “shrunken log2 fold change” value is -0.00641. Under RRIRMRPPRLPRPRPRPCMTPRP stands 1.65; under RRIRARPPRLPRPRPRPLRKPRP, 0.62.

On to RRIRARPPRLPRPRPRPPSCPRP, for which the “shrunken log2 fold change” value is 0.503. RRIRWRPPRLPRPRPRPENCPRP: the “shrunken log2 fold change” value is 0.138. The result for RRIRVRPPRLPRPRPRPKNIPRP reads -0.505; that for RRIRYRPPRLPRPRPRPPCTPRP, -0.33; that for RRIRSRPPRLPRPRPRPQHTPRP, -0.424. With RRIRKRPPRLPRPRPRPFIAPRP, the “shrunken log2 fold change” value is -0.0583. The result for RRIRCRPPRLPRPRPRPAMFPRP reads -0.0946; that for RRIRQRPPRLPRPRPRPYPMPRP, 0.0253; that for RRIRCRPPRLPRPRPRPGKKPRP, -0.0838. As to RRIRGRPPRLPRPRPRPGTLPRP, the “shrunken log2 fold change” value was 0.351. For the sequence RRIRKRPPRLPRPRPRPSWNPRP, the “shrunken log2 fold change” value was -0.15. Under RRIRERPPRLPRPRPRPEWFPRP stands 0.0631.

For the sequence RRIRCRPPRLPRPRPRPHQEPRP, the “shrunken log2 fold change” value is -0.0176. The result for RRIRGRPPRLPRPRPRPFTQPRP reads -0.0854; that for RRIRMRPPRLPRPRPRPLHIPRP, -0.0533; that for RRIRMRPPRLPRPRPRPRRHPRP, 1.02.

Take RRIRVRPPRLPRPRPRPEQFPRP: the “shrunken log2 fold change” value is 0.0357. Under RRIRSRPPRLPRPRPRPNTIPRP stands -0.511; under RRIRFRPPRLPRPRPRPRPWPRP, 0.505; under RRIRLRPPRLPRPRPRPYQIPRP, -0.489. Under RRIRSRPPRLPRPRPRPRVFPRP stands 0.151; under RRIRYRPPRLPRPRPRPWIPPRP, -0.0119; under RRIRYRPPRLPRPRPRPTRNPRP, -0.404. In the case of RRIRCRPPRLPRPRPRPEKFPRP, the “shrunken log2 fold change” value is 0.0607. Regarding RRIRGRPPRLPRPRPRPNIMPRP, the “shrunken log2 fold change” value was found to be 0.0649. For the sequence RRIRDRPPRLPRPRPRPFYFPRP, the “shrunken log2 fold change” value was -0.262. The result for RRIRCRPPRLPRPRPRPSRRPRP reads -0.181. Under RRIRMRPPRLPRPRPRPRFWPRP stands 0.522. The result for RRIRNRPPRLPRPRPRPFFEPRP reads -0.0529; that for RRIRFRPPRLPRPRPRPSFGPRP, -0.112. Turning to RRIRIRPPRLPRPRPRPPEHPRP, the “shrunken log2 fold change” value is -0.037.

For the sequence RRIRMRPPRLPRPRPRPCDEPRP, the “shrunken log2 fold change” value was 0.877. RRIRMRPPRLPRPRPRPAWYPRP: the “shrunken log2 fold change” value worked out at 0.177. On to RRIRMRPPRLPRPRPRPAKAPRP, for which the “shrunken log2 fold change” value was found to be 0.0749. For the sequence RRIRKRPPRLPRPRPRPQTWPRP, the “shrunken log2 fold change” value stood at 0.134. Regarding RRIRYRPPRLPRPRPRPASHPRP, the “shrunken log2 fold change” value is -1. Under RRIRMRPPRLPRPRPRPHDKPRP stands 0.0701; under RRIRRRPPRLPRPRPRPLQWPRP, 0.292. The result for RRIRPRPPRLPRPRPRPCYMPRP reads -1.12. Under RRIRRRPPRLPRPRPRPEWPPRP stands 0.387; under RRIRIRPPRLPRPRPRPKSSPRP, -0.143; under RRIRCRPPRLPRPRPRPVADPRP, 0.181. RRIRRRPPRLPRPRPRPAEKPRP: the “shrunken log2 fold change” value worked out at 0.225. The result for RRIRFRPPRLPRPRPRPCIYPRP reads -0.191.

Turning to RRIRPRPPRLPRPRPRPRGNPRP, the “shrunken log2 fold change” value was -0.16. For RRIRDRPPRLPRPRPRPQFRPRP, the “shrunken log2 fold change” value is -0.296. Turning to RRIRQRPPRLPRPRPRPLMTPRP, the “shrunken log2 fold change” value was 0.0563.

As to RRIRWRPPRLPRPRPRPMLPPRP, the “shrunken log2 fold change” value was -0.0127. Consider RRIRYRPPRLPRPRPRPMYEPRP, for which the “shrunken log2 fold change” value was -0.101.

Consider RRIRHRPPRLPRPRPRPMYIPRP, for which the “shrunken log2 fold change” value was -0.0294. Under RRIRERPPRLPRPRPRPGWGPRP stands 0.521; under RRIRTRPPRLPRPRPRPRSAPRP, 0.0929. The result for RRIRDRPPRLPRPRPRPEGEPRP reads -0.0124; that for RRIRPRPPRLPRPRPRPESAPRP, 0.396; that for RRIRARPPRLPRPRPRPYSNPRP, -0.781. Take RRIRARPPRLPRPRPRPKCCPRP: the “shrunken log2 fold change” value came out at 0.165.

Take RRIRARPPRLPRPRPRPKFRPRP: the “shrunken log2 fold change” value was -0.043. Under RRIRWRPPRLPRPRPRPDQMPRP stands 0.128.

As to RRIRRRPPRLPRPRPRPLSQPRP, the “shrunken log2 fold change” value was 0.000673. The result for RRIRWRPPRLPRPRPRPDWFPRP reads 0.147. RRIRQRPPRLPRPRPRPIPNPRP: the “shrunken log2 fold change” value is -0.0226. The result for RRIRYRPPRLPRPRPRPYNDPRP reads -0.0979; that for RRIRARPPRLPRPRPRPPCKPRP, 0.204; that for RRIRWRPPRLPRPRPRPSECPRP, 0.0183. On to RRIRCRPPRLPRPRPRPYIFPRP, for which the “shrunken log2 fold change” value was -0.773. With RRIRTRPPRLPRPRPRPFDDPRP, the “shrunken log2 fold change” value was determined as 0.0564. The result for RRIRCRPPRLPRPRPRPEPMPRP reads 0.176.

In the case of RRIRFRPPRLPRPRPRPDFYPRP, the “shrunken log2 fold change” value was -0.105.

For RRIRLRPPRLPRPRPRPFTWPRP, the “shrunken log2 fold change” value was -0.369. As for RRIRWRPPRLPRPRPRPPQKPRP, the “shrunken log2 fold change” value amounted to 0.413. Turning to RRIRFRPPRLPRPRPRPIAKPRP, the “shrunken log2 fold change” value is -0.181. Under RRIRERPPRLPRPRPRPIMWPRP stands -0.268.

RRIRMRPPRLPRPRPRPCQNPRP: the “shrunken log2 fold change” value was 0.0761. The result for RRIRFRPPRLPRPRPRPDVAPRP reads 0.239; that for RRIRPRPPRLPRPRPRPASSPRP, 0.0138; that for RRIRWRPPRLPRPRPRPVALPRP, 0.459. Take RRIRNRPPRLPRPRPRPKVEPRP: the “shrunken log2 fold change” value stood at 0.039.

Regarding RRIRMRPPRLPRPRPRPIRGPRP, the “shrunken log2 fold change” value is -0.00871. The result for RRIRHRPPRLPRPRPRPELDPRP reads 0.6; that for RRIRHRPPRLPRPRPRPRLSPRP, -0.0962. Consider RRIRHRPPRLPRPRPRPEDMPRP, for which the “shrunken log2 fold change” value was -0.208.

As to RRIRYRPPRLPRPRPRPFKFPRP, the “shrunken log2 fold change” value worked out at 0.0599. The result for RRIRPRPPRLPRPRPRPGIWPRP reads 0.157; that for RRIRVRPPRLPRPRPRPRNFPRP, -0.275; that for RRIRIRPPRLPRPRPRPCDKPRP, -0.0161. The result for RRIRDRPPRLPRPRPRPFEDPRP reads 0.265; that for RRIRCRPPRLPRPRPRPMHVPRP, 0.0371; that for RRIRHRPPRLPRPRPRPVYLPRP, -0.406. Under RRIRQRPPRLPRPRPRPAGRPRP stands 0.978; under RRIRSRPPRLPRPRPRPRHQPRP, -0.119. Regarding RRIRSRPPRLPRPRPRPADCPRP, the “shrunken log2 fold change” value amounted to 0.0938. The result for RRIRLRPPRLPRPRPRPEVCPRP reads -0.0515; that for RRIRPRPPRLPRPRPRPISIPRP, -0.109; that for RRIRQRPPRLPRPRPRPFHNPRP, -0.152.

Regarding RRIRQRPPRLPRPRPRPMHDPRP, the “shrunken log2 fold change” value was -0.0216. As for RRIRGRPPRLPRPRPRPMKWPRP, the “shrunken log2 fold change” value was 3.42. The result for RRIRERPPRLPRPRPRPEKPPRP reads 3.84. The result for RRIRWRPPRLPRPRPRPIMAPRP reads 0.14; that for RRIRTRPPRLPRPRPRPVRTPRP, 0.149; that for RRIRSRPPRLPRPRPRPYQDPRP, 0.0107. With RRIRPRPPRLPRPRPRPRRIPRP, the “shrunken log2 fold change” value is 0.252. RRIRGRPPRLPRPRPRPEHRPRP: the “shrunken log2 fold change” value is 0.102. With RRIRDRPPRLPRPRPRPRLPPRP, the “shrunken log2 fold change” value is 0.4. As for RRIRNRPPRLPRPRPRPVYHPRP, the “shrunken log2 fold change” value was -0.0311.
